Assays:
[1] = molecular target: T1, HA-Halo-MC3R (melanocortin-3 receptor) (human, UniProt P41968 1-323, CA-Sulfo646 dye on the Halo tag (SiMPull)); assay: single-molecule pull-down (SiMPull) with photobleaching step counting; two colours: lysate of HEK293 cells cotransfected with 300 ng HA-Halo-tagged and 600 ng FLAG-CLIP-tagged plasmid, labelled at the surface with CA-Sulfo646 and BC-DY547, lysed in 0.5% LMNG/0.05% CHS; HA-tagged protein immobilised on HA antibody; co-localised spots and bleaching steps counted by TIRF; settings: partners not purified
T1 construct: melanocortin-3 receptor (MC3R), human; S14 and the UBIRA repository (DOI 10.25500/edata.bham.00001385); also called ss-HA-Halo-MC3R; source: HEK293 (AD-293), transiently transfected, in lysate (LMNG-CHS) or in cells; not shown: HA, N-terminal, kept; Halo, N-terminal, kept
T1 sequence (P41968 whole entry): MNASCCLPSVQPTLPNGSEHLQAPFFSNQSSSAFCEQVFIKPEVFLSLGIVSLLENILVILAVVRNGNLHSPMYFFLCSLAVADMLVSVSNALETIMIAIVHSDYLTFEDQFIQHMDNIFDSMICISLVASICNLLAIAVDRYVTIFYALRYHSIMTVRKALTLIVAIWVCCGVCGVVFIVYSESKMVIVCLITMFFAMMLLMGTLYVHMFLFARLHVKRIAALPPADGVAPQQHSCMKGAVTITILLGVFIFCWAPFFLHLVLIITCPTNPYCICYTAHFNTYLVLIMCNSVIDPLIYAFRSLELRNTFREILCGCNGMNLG

[2] = molecular target: the molecule itself; assay: single-molecule pull-down (SiMPull) with photobleaching step counting; one colour: HEK293 cells expressing the HA-Halo-tagged protein alone, labelled at the surface with membrane-impermeable CA-Sulfo646, lysed in 0.5% LMNG/0.05% CHS, immobilised by the HA tag on slides with biotinylated HA antibody, single molecules imaged by TIRF

B1: FLAG-CLIP-MRAP2 (melanocortin-2 receptor accessory protein 2) (natural protein, human, UniProt Q96G30 1-205, looked up)
chain: MSAQRLISNRTSQQSASNSDYTWEYEYYEIGPVSFEGLKAHKYSIVIGFWVGLAVFVIFMFFVLTLLTKTGAPHQDNAESSEKRFRMNSFVSDFGRPLEPDKVFSRQGNEESRSLFHCYINEVERLDRAKACHQTTALDSDVQLQEAIRSSGQPEEELNRLMKFDIPNFVNTDQNYFGEDDLLISEPPIVLETKPLSQTSHKDLD
modifications: BC-DY547 (CLIP-surface 547) dye on the CLIP tag
notes: melanocortin-2 receptor accessory protein 2 (MRAP2), human; S14 and the UBIRA repository; also called ss-FLAG-CLIP-MRAP2; source: HEK293 (AD-293), transiently transfected, in lysate (LMNG-CHS); not shown: FLAG, N-terminal, kept; CLIP, N-terminal, kept
stoichiometry N [1]: 1 MRAP2 per MC3R

B2: mGluR2 (receptor, UniProt P31421 19-872, looked up)
chain: EGPAKKVLTLEGDLVLGGLFPVHQKGGPAEECGPVNEHRGIQRLEAMLFALDRINRDPHLLPGVRLGAHILDSCSKDTHALEQALDFVRASLSRGADGSRHICPDGSYATHSDAPTAVTGVIGGSYSDVSIQVANLLRLFQIPQISYASTSAKLSDKSRYDYFARTVPPDFFQAKAMAEILRFFNWTYVSTVASEGDYGETGIEAFELEARARNICVATSEKVGRAMSRAAFEGVVRALLQKPSARVAVLFTRSEDARELLAATQRLNASFTWVASDGWGALESVVAGSERAAEGAITIELASYPISDFASYFQSLDPWNNSRNPWFREFWEERFHCSFRQRDCAAHSLRAVPFEQESKIMFVVNAVYAMAHALHNMHRALCPNTTHLCDAMRPVNGRRLYKDFVLNVKFDAPFRPADTDDEVRFDRFGDGIGRYNIFTYLRAGSGRYRYQKVGYWAEGLTLDTSFIPWASPSAGPLPASRCSEPCLQNEVKSVQPGEVCCWLCIPCQPYEYRLDEFTCADCGLGYWPNASLTGCFELPQEYIRWGDAWAVGPVTIACLGALATLFVLGVFVRHNATPVVKASGRELCYILLGGVFLCYCMTFVFIAKPSTAVCTLRRLGLGTAFSVCYSALLTKTNRIARIFGGAREGAQRPRFISPASQVAICLALISGQLLIVAAWLVVEAPGTGKETAPERREVVTLRCNHRDASMLGSLAYNVLLIALCTLYAFKTRKCPENFNEAKFIGFTMYTTCIIWLAFLPIFYVTSSDYRVQTTTMCVSVSLSGSVVLGCLFAPKLHIILFQPQKNVVSHRAPTSRFGSAAPRASANLGQGSGSQFVPTVCNGREVVDSTTSSL
notes: metabotropic glutamate receptor 2 (mGluR2); also called dimeric GPCR mGluR2
stoichiometry N [2]: 2

Source: article PMC7618510, “The accessory protein MRAP2 directly interacts with melanocortin-3 receptor to enhance signaling” (Science signaling, 2025)
